Target: wild-type TrkA, baculovirus-expressed, activated (autophosphorylated) (UniProt P04629)

SHP-1
dephosphorylation of 32P-autophosphorylated Trk in vitro: approximately 5-fold dephosphorylation

— US20020110800
